± gives the standard deviation of the averaged measurements.
Tested on: ATP
Experiment: switch fluorescence ratio, 500 uM ATP over buffer (Cy3 cluster intensity, sum of 5 cycles each) (fold (ratio)); higher = stronger signal-on switching upon ATP binding; sequences stand for … in TCGTCGGCAGCGTCAGATGTGTATAAGAGACAGTTTTTTTTTTTTTTTTTTTTTTTTT…TC
Conditions: aptamer strand: ATP DNA aptamer (quencher-CACCTGGGGGAGTATTGCGGAGGAAGG + anchor), 100 nM annealed; ATP concentration: 500 uM
In short: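 Imaging in selection buffer was followed by imaging after 15 min with 500 uM ATP at 22 °C, for Cy3-labelled switching-strand clusters annealed to 100 nM quencher-labelled ATP aptamer on a modified Illumina MiSeq flow-cell. Five of these buffer/ATP cycles ran, separated by NaOH stripping and re-annealing. The fluorescence ratio per cluster is summed target-cycle over summed buffer-cycle Cy3 intensity, averaged per switch-domain sequence; clusters outside 100-1000 RFU were removed.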
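Note: ATP exposure 15 min at 22 °C before imaging.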

Sequence | switch fluorescence ratio
ATAAGGGAGG | 0.979 ± 0.022
TAGTAGATTC | 1.005 ± 0.0054
AAAGGACGGG | 1.017 ± 0.0031
TGAGGAAAGG | 1.17 ± 0.25
CGGGGTGCCG | 0.98847 ± 0.00081
TTGGCATACG | 1.06 ± 0.034
ATAATGGGCG | 0.995 ± 0.058
ATTCTGATGC | 1.05 ± 0.0092
TTGAGCATTT | 0.982 ± 0.03
ATACTTTTTT | 1.01 ± 0.061
GAAGGGGTGG | 1.01 ± 0.037
CCGCACTAAG | 3.94 ± 0.74
TTTTGGCCCC | 1.07 ± 0.084
GGGAAGCCGT | 1.14 ± 0.23
GGGGTTGGTT | 0.995 ± 0.044
ATCGGGGTGG | 1 ± 0.071
CAACTAAAAA | 1.01 ± 0.032
GATCGCGTAT | 1.02 ± 0.0026
GTTGGTTAGG | 0.959 ± 0.0071
AACCAATCGT | 1.03 ± 0.041
ATATATGAGG | 0.974 ± 0.03
ACTTGGGAAT | 1.03 ± 0.02
GGCGCAGCTG | 0.96511 ± 0.0006

Sequence | switch fluorescence ratio
TGAAGACCAT | 1.016 ± 0.0058
AAAGAGCGGG | 1.02 ± 0.061
TGGGTTGCTG | 1.05 ± 0.066
CACTAGTAGA | 1.03 ± 0.028
GACGGTTGAG | 1.025 ± 0.0057
CATAGTATTA | 0.958 ± 0.04
TTTCAGACAC | 1.02 ± 0.011
TCGTTTTCCT | 1.02 ± 0.043
AGGGGAAATG | 0.9645 ± 0.0024
GATCTTTTCG | 1.01 ± 0.037
TATTTTTTTA | 0.997 ± 0.039
GAGAGGCACA | 1.02 ± 0.051
TGATGCCGAA | 1.022 ± 0.0034
ATCAGAAGGT | 0.995 ± 0.021
ACTATGGATG | 1.02 ± 0.036
ATGAATCGTC | 0.9927 ± 0.0037
CGACGGGCGG | 1.02 ± 0.032
GCCGTAGTAA | 1.68 ± 0.011
CCCGAGTATG | 1.034 ± 0.0099
TTTTATCTAA | 0.988 ± 0.048
GCGTGCAATG | 1.026 ± 0.0018
CTGGGGGGTA | 0.997 ± 0.028
GTGGGGCATT | 0.9905 ± 0.0086

Sequence | switch fluorescence ratio
GGGGTTCACC | 0.957 ± 0.023
TTCGTATAGA | 1 ± 0.041
GTGTGGGGAT | 1 ± 0.044
GAGGGGATAG | 1.03 ± 0.046
TTAGTCCGTG | 1.01 ± 0.036
GAAATGGGTG | 1.04 ± 0.078
GCGAATATCC | 1.11 ± 0.017
TGGGGGACGG | 1 ± 0.035
CAACGGTTGG | 1.01 ± 0.045
CGATGTTTGG | 0.988 ± 0.025
GGTTAAGATG | 0.986 ± 0.01
ATTATTTTAC | 0.976 ± 0.036
CGCGCGGATT | 1.04 ± 0.034
CACTTCCTTT | 1.39 ± 0.51
ATTTTTGATG | 1.02 ± 0.073
CGTCATCAGG | 1.042 ± 0.0069
TATAACGGAG | 1.01 ± 0.014
CACTGTAACG | 1.194 ± 0.0063
TTTAATTCTT | 1 ± 0.012
AAGTGCGGCC | 0.987 ± 0.011
AGGGTGGGCT | 0.996 ± 0.012
AACGCCGCAT | 1.858 ± 0.0036
TTCTAACTCA | 1.02 ± 0.029

Sequence | switch fluorescence ratio
GAGGTTTCAT | 0.997 ± 0.016
TTAATCTGAG | 1.02 ± 0.012
AAGTATGTAT | 1.02 ± 0.041
CGGAGGTTTC | 1.02 ± 0.03
TCATGGTTG | 1.01 ± 0.01
TCGAATGGAT | 0.991 ± 0.011
AATGCTCGCT | 1.022 ± 0.0061
ACCACGGTTG | 1.07 ± 0.023
ACTGTAATTT | 1.18 ± 0.027
AGTAGTGCGT | 0.997 ± 0.04
TGTAAGGATT | 1.009 ± 0.0083
GGTTGAAGTA | 0.989 ± 0.047
TTTTGCGAGG | 1.03 ± 0.014
TGGGTTACGG | 0.983 ± 0.036
TAAAAATTTG | 1.07 ± 0.082
GCTCCCGGGG | 1.24 ± 0.12
GCGCGCACAT | 1.01 ± 0.048
AGATATCAAC | 1.04 ± 0.021
AGTGGGCGGG | 1.003 ± 0.0097
AGACATAGAG | 1 ± 0.011
TTTTGTTCAG | 0.985 ± 0.037
TGCCTAACTT | 1.019 ± 0.0066
ATGAAAAGGA | 0.97123 ± 0.00096

Sequence | switch fluorescence ratio
TGGGGCGGCG | 0.976 ± 0.03
AGGAGGATCG | 0.97 ± 0.079
TTTTAGTGAC | 1.022 ± 0.0053
TAGTTGACCG | 1.12 ± 0.11
ACTCGATACG | 1.07 ± 0.037
AGCCCGCCGG | 1.03 ± 0.031
AATGAAAAGT | 0.992 ± 0.017
CGTGTAATTC | 1.03 ± 0.1
CGTCTTAGGG | 0.966 ± 0.016
TGGCAGTAAA | 1.02 ± 0.039
TACGGCAGTG | 0.998 ± 0.025
TTACCGGGCT | 1.051 ± 0.004
GATTCTAGGG | 0.9918 ± 0.0017
AGTTCAAGCT | 1.02 ± 0.007
AGCCTTTTTC | 1.08 ± 0.091
CGTGACCAGG | 1.14 ± 0.029
AGGTGTAATT | 0.987 ± 0.031
GGTCATGGGA | 0.99 ± 0.017
GGCGGATATA | 0.9553 ± 0.0058
CGGATCGGGT | 1.004 ± 0.0015
AGTGGCTTCC | 2.043 ± 0.013
AAGGTTTTTC | 1.01 ± 0.015
GGGTCTGTTG | 0.975 ± 0.013

Sequence | switch fluorescence ratio
TTCAATGAGG | 0.973 ± 0.052
CTCTCAAGGT | 1.05 ± 0.018
TCAGGATTAG | 1.02 ± 0.02
GCATGTCGTT | 1.001 ± 0.0047
AGCATTGAGG | 0.984 ± 0.0067
TAGGTGGCGG | 0.9906 ± 0.0071
GGGGAGGTAG | 0.985 ± 0.014
AGAAAGGTAT | 1.11 ± 0.25
CTGTTACTGT | 0.986 ± 0.024
TGGGTTAATT | 0.989 ± 0.026
GACGGTGCAT | 1.33 ± 0.084
CGTCTAAGTG | 0.99 ± 0.019
TTTTATTTA | 0.9701 ± 0.0072
CGATTAGGTA | 1 ± 0.041
CGTTGGAATG | 0.981 ± 0.015
ATCATACTGT | 1.007 ± 0.0024
TCGTACAGGG | 1.03 ± 0.047
ATGTTTCTGA | 0.9851 ± 0.0032
TCATTAAGGT | 0.995 ± 0.03
TCAGGATTGT | 0.967 ± 0.031
GGTGGGTTAG | 1.02 ± 0.032
TAAGATGTTT | 0.957 ± 0.034
GGCCTACCGC | 1.13 ± 0.036

Sequence | switch fluorescence ratio
TTGGTTTCCT | 1.02 ± 0.038
GCGATTTGTG | 1.01 ± 0.037
GGTGACTGAG | 1.012 ± 0.009
GTTTTATTTG | 1.01 ± 0.025
GGTTACCGGC | 0.977 ± 0.079
TTTGTTTCT | 0.968 ± 0.01
GAGGGTTTGG | 0.989 ± 0.037
GGGGCGGATT | 0.984 ± 0.014
TACAGTTGTA | 0.971 ± 0.06
TCTTTACAGT | 1.05 ± 0.032
ATGCACTCGA | 1.03 ± 0.012
CGGGTGGGAT | 1.006 ± 0.0035
GGATGACTGG | 0.9993 ± 0.0061
GATGGAGGAG | 1.03 ± 0.027
AGGATGGGCG | 0.928 ± 0.039
TTTCAATAAT | 0.988 ± 0.023
GCTTACAGGA | 1.01 ± 0.033
TTGGTGATTG | 0.976 ± 0.014
GGAAATAAAA | 1.22 ± 0.24
